We go through three molecules from paper doi:10.1101/2020.02.21.959445.

Test in all cases: EMSA
On the technique in general: In EMSA bound probe runs differently from free probe, usually more slowly.

In one data set the target is T1, MEF-1 (designed (human Max/human E47/FosW)).
T1 chain: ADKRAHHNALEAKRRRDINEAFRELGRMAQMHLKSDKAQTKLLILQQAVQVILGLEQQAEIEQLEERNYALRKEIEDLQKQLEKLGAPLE

The next data set addresses T2, MEF+1 (designed (human Max/human E47/FosW)).
T2 chain: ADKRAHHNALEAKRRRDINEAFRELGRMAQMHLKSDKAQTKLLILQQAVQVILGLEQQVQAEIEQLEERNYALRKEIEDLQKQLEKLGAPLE

The target of a further data set is T3, MEF (designed (human Max/human E47/FosW)).
T3 chain: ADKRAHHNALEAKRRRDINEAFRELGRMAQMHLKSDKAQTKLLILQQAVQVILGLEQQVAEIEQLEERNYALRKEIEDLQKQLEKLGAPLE

In another data set the target is T4, MEF/LA (designed (human Max/human E47/FosW), four FosW heptad Leu to Ala (see sequence)).
T4 chain: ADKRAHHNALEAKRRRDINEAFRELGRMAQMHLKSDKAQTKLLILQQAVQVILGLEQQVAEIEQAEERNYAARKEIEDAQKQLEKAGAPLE

Another data set addresses T5, ME47/AA (designed (human Max/human E47), R12A;C29A).
T5 chain: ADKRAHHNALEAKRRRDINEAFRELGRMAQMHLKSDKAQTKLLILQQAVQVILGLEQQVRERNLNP

B1: NS DNA (nonspecific; TCCAAG in place of CACGTG) (dsDNA)
DNA 1: TGCAGGAGTTCCAAGGCGAAGGTT
DNA 2: AACCTTCGCCTTGGAACTCCTGCA
With B1, the Kd (as a rule, the free concentration of one partner at which half of the binding sites on the other are occupied at equilibrium, for simple one-to-one binding) with MEF-1 was 111 ± 18 nM; in the data set with MEF+1, 65 ± 7 nM; with MEF, 96 ± 22 nM; with MEF/LA it was 44.5 ± 6 nM; with ME47/AA, 87.5 ± 5.1 nM.

B2: AT E-box (-7 AT E-box) (dsDNA)
DNA 1: GCGGCCGCTGCAGGAACCACGTGGTGGAATTCTTTACA
DNA 2: TGTAAAGAATTCCACCACGTGGTTCCTGCAGCGGCCGC
The molecule B2 displayed a Kd in the data set with ME47/AA of 28.5 ± 2.3 nM.

B3: E-box (-7 GC E-box) (dsDNA)
DNA 1: GCGGCCGCTGCAGGAGCCACGTGCGGGAATTCTTTACA
DNA 2: TGTAAAGAATTCCCGCACGTGGCTCCTGCAGCGGCCGC
As for B3, the Kd came to 59 ± 5 nM with MEF-1; 30 ± 4 nM with MEF+1; 7.8 ± 0.6 nM with MEF; 10.7 ± 1.5 nM in the data set with MEF/LA; 27.7 ± 1.7 nM in the data set with ME47/AA.
